Target: the molecule itself
Test: cryo-EM structure

B1: Escherichia coli mechanosensitive channel of small conductance MscS, wild type (natural protein, E. coli, UniProt P0C0S1 1-286, looked up)
chain: MEDLNVVDSINGAGSWLVANQALLLSYAVNIVAALAIIIVGLIIARMISNAVNRLMISRKIDATVADFLSALVRYGIIAFTLIAALGRVGVQTASVIAVLGAAGLAVGLALQGSLSNLAAGVLLVMFRPFRAGEYVDLGGVAGTVLSVQIFSTTMRTADGKIIVIPNGKIIAGNIINFSREPVRRNEFIIGVAYDSDIDQVKQILTNIIQSEDRILKDREMTVRLNELGASSINFVVRVWSNSGDLQNVYWDVLERIKREFDAAGISFPYPQMDVNFKRVKEDKAA
For B1, the “stoichiometry N” value was 7.

Reference: article doi:10.1101/2024.01.22.576751 (bioRxiv, 2024)
